{"source": "patent US11351270B2", "about": "“Junctophilin-2 fragments and uses therefor” (University of Iowa Research Foundation, priority 2016, dated 2022)", "molecules": {"B1": {"name": "JP2(566-end): C-terminal JP2 truncation, tagged with HA at the C terminus (protein)", "chain": "TGPPEPPPLEDEQEPEPEPEPEVRRSDSAPPSPVSATVPEEEPPAPRSPVPAKQATLEPKPIVPKAEPKAKARKTEARGLSKAGAKKKGRKEVAQAKEAEVEVEEVPNTVLICMVILLNIGLAILFVHLLTYPYDVPDYA"}, "B2": {"name": "GST-JP2^331-405: purified peptide containing the ARR; DNA binding domain of JP2NT (protein, UniProt Q9ET78 331-405, looked up, fragment)", "chain": "EEGKYRHNVLVKGTKRRVLPLKSSKVRQKVEHGVEGAQRAAAIARQKAEIAASRTSHAKAKAEAAEQAALAANQE", "modifications": "GST tag"}}, "key": {"human calpain I": {"biological_target": "T1, human calpain I (Homo sapiens, UniProt P07384)", "T1 construct": "purchased Calbiochem", "T1 sequence (P07384 1-714)": "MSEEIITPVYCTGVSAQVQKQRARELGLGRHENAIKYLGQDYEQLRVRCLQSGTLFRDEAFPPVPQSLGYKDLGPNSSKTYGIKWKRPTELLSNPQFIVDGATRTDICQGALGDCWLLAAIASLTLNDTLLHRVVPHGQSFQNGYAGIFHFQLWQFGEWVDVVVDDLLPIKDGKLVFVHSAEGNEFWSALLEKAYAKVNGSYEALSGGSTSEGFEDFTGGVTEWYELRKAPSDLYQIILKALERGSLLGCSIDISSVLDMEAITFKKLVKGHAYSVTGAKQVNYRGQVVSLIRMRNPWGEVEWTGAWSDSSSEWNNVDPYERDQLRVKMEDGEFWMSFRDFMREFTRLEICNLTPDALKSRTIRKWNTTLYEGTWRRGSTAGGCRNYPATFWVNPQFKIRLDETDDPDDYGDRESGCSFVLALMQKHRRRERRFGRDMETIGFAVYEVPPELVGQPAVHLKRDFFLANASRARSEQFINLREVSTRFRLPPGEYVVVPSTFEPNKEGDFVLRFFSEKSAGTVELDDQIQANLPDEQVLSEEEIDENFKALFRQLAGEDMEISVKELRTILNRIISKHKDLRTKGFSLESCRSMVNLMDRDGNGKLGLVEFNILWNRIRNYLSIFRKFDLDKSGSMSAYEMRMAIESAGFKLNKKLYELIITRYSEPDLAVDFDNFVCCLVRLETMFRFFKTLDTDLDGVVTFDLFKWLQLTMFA", "T1 sequence (P04632 1-268 partner)": "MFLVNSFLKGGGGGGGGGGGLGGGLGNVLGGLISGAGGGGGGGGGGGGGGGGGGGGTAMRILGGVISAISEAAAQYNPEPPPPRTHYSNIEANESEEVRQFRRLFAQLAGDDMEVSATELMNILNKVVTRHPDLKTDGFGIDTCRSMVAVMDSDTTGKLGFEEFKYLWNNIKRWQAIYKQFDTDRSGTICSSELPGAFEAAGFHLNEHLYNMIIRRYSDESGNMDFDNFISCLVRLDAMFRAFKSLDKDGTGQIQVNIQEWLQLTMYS", "assay": "In vitro calpain-mediated proteolysis reaction", "assay_type": "biochemical", "settings": "for JP2 degradation by calpain I: WT mouse heart lysates, 3 mM free Ca2+, Z-LLY-FMK 20 μM, EDTA 5 mM", "description": "Mouse and human heart tissues as well as HEK 293T cells (obtained from the ATCC and cultured according to the protocol of the manufacturer) overexpressing tagged JP2 were washed with PBS and homogenized in lysis buffer (20 mM Tris-HCl, 150 mM NaCl, 2 mM EDTA, and 1% Triton X-100), followed by sonication. Homogenates were centrifuged for 10 minutes at 14,000 rpm at 4° C. Protein content in the supernatant was determined using the BCA assay (Thermo Scientific). Cell extracts were diluted in ice-cold calpain reaction buffer (135 mM NaCl, 5 mM KCl, 1 mM MgCl2, 10 mM glucose, 10 mM Hepes (pH 7.25), 2 mM lactacystin, and 10 mM 2-mercaptoethanol) to a concentration of 4 mg protein/ml. Just prior to starting the protease reaction, CaCl2 was added to achieve a final concentration of 3 mM free Ca^2+ (in the presence of EDTA), as calculated by winmaxc32 (Stanford University). For some experiments, the free Ca^2+ concentration was adjusted to 500 μM, as calculated by winmaxc32. Purified human calpain I (Calbiochem) was added at a concentration of 1 mg of total protein/1 μg of calpain I. Reactions without Ca^2+ or without purified calpain I were used as controls. Reactions were incubated at 30° C. for the indicated time and stopped by adding EDTA to a final concentration of 10 mM and incubating for 5 minutes at 95° C. The reaction products were subjected to Western blotting."}, "JP2-KD cardiomyocytes": {"test_system": "JP2-KD cardiomyocytes", "assay": "Confocal Ca2+ imaging in JP2-KD cardiomyocytes after adenoviral expression", "assay_type": "cell-based, mouse", "settings": "1-Hz field stimulation", "from_the_text": "Specifically, conditional shJP2 mice (provided by Dr. Wehrens) (van Oort et al., 2011) were crossed with mice carrying the cardiac-specific α-myosin heavy chain promoter upstream of Cre (% MHC-Cre, also FVB-Tg(Myh6-cre)2182Mds/J, The Jackson Laboratory). The shJP2 mice were maintained on a C57BL/6 background for more than 10 generations. The αMHC-Cre mice were maintained on an FVB background. PCR was used to genotype the offspring. The near complete depletion of JP2 protein in JP2-KD (αMHC-Cre X shJP2) hearts has been reported recently (Chen et al., 2013). JP2-KD mice were sacrificed at 2 months of age for isolation and culture of ventricular cardiomyocytes as described below.\nGenecarrior-1 (Epoch Lab) was used to transfect plasmids into HEK293T cells. Isolation and culture of cardiomyocytes were performed as described previously (Guo et al., 2012). […] Ca^2+ Imaging experiments were performed 40 hours after adenoviral infection.\nCells were loaded with Rhod-2AM at 37° C. for 20 minutes, followed by washing with Tyrode's solution at room temperature for 15 minutes before Ca^2+ imaging. Confocal images were acquired using a ×63, 1.3 numerical aperture oil immersion objective mounted on a Zeiss LSM 510 confocal microscope. Confocal line scanning was used to record Ca^2+ signals. Steady-state Ca^2+ transients were recorded in Tyrode's solution containing 1.8 mM Ca^2+ under field stimulation of 1 Hz. At least five steady-state transients for each cell were analyzed and averaged to represent Ca^2+ signals of the cell. Ca^2+ imaging data were analyzed by using a home-complied software, CaTeasy, which is coded in MATLAB 2013a (Mathworks). Briefly, the program normalizes Ca^2+ transient images on a column-by-column basis (512 columns/image). The characteristic parameters of normalized transients were detected automatically. The firing time of every scanning pixel was detected column by column on the basis of the maximum local variability of pixel intensity. The profile of the point-to-point firing time was indicated by a red line overlapping on the Ca^2+ image. Index of desynchronization, defined by the mean absolute deviation of firing time of each scanning pixel (with every 8 pixels binned), was used to evaluate the dyssynchrony of Ca^2+ transients. This automated software for calcium transient analysis is available upon request."}, "RyR2 and Cav1.2": {"test_system": "RyR2 and Cav1.2", "assay": "Coimmunoprecipitation with E-C coupling channels", "assay_type": "binding, mouse", "settings": "anti-HA immunoprecipitation", "from_the_text": "FIGS. 5A-H. JP2 truncations are nonfunctional in regulating Ca^2+ transients. A) An antibody against the HA tag was used to reveal the localization of adenoviral expression of tagged full-length JP2 and truncations, as indicated, in adult wild-type cardiomyocytes. All the three version of JP2 can be localized in the striated pattern. B) Full-length JP2 and JP2(1-565) forms complexes with RyR2 and Cav1.2 In vivo. An antibody against HA was used for immunoprecipitation […]. The RyR2 and Cav1.2 that were pulled down were detected by Western blot analysis. […] IB, immunoblot. C) Adenovirus-mediated expression of full-length JP2, FLAG-JP2(1-565)-HA, and JP2(566-end)-HA in JP2-KD) cardiomyocytes. D) Representative steady-state Ca^2+ transients under 1-Hz field stimulation. The fluorescence intensity (F) of Ca^2+ imaging was normalized to the baseline (FO). The red lines overlapping on Ca^2+ imaging show the profile of the moment of Ca^2+ transient firing on the scanning line in a point-by-point way. A straighter line means better synchronization of the Ca^2+ transients. Note that expression of full-length JP2, but not JP2 truncations, improves the amplitude and synchronization of Ca^2+ transients. E-G) Summary of Ca^2+ transient amplitude, index of desynchronization (mean absolute deviation of firing time), and duration of 50% decay (T5) (n=68, 70, 70, and 52 for Ad-Empty, Ad-JP2, […], and Ad-JP2(566-end), respectively). Only full-length JP2 Improves the amplitude, synchronization, and decay of Ca^2+ transients. H) Summary of SR Ca^2+ content, which was assessed by caffeine-induced SR Ca^2+ release (n=17, 17, 17, and 12 for Ad-Empty, Ad-JP2, Ad-JP2(1-565), and Ad-JP2(566-end), respectively). **, p<0.01 versus indicated groups; N.S., not significant.\nCleavage at the primary calpain proteolysis site (Arg-565/Thr-566) splits apart the C-terminal SR-binding TM domain and N-terminal plasma membrane-binding MORN domains of JP2. […]"}, "TATA box DNA sequences": {"test_system": "TATA box DNA sequences", "assay": "Gel shift assay with TATA box sequences", "assay_type": "binding", "settings": "GST-purified protein; cMyc or CMV promoter sequences", "from_the_text": "FIGS. 11A-H. JP2NT is a TATA-box binding protein enriched at transcription start site (TSS) and interacts with basic transcription machinery. […] C) 293T cells were transfected with HA-tagged JP2NT, followed by crosslinking-reversal immunoprecipitation with anti-HA and immunoblotting with anti-polymerase II (Rpb1) or anti-TATA box binding protein (TBP). D-H) JP2NT binds to TATA box DNA sequences in vitro. D-E) Gel shift assays of GST-purified JP2NT binding to WT (D). or mutated TATA box-containing sequences (E) derived from the cMyc promoter. F) Summary of the results of gel shift assays with various of TATA box variants or mutants. Mutation of the core TATA sequences abolished the interaction with GST-JP2NT. G) Deletion of the ARR, but not the N-terminal MORN domains, eliminated JP2NT binding to the TATA box sequence. H) The peptide JP2^331-405 containing the ARR specifically binds to WT TATA box sequence.\nTBP specifically binds to TATA boxes, eukaryotic core cis-regulatory elements localized at transcription start site. […] This interaction was abrogated by mutation of the TATA box elements (FIGS. 11E&G and 17B). It was concluded that JP2NT is a DNA binding protein, binding to consensus TATA box represented as TATAA(A/T) or TATATA (FIG. 11F)."}, "[1]": {"test_system": "MEF2C Response Element (MRE) from the desmin enhancer", "assay": "Gel shift assay with MEF2 response element", "assay_type": "binding", "settings": "purified protein", "from_the_text": "FIGS. 12A-E. JP2NT represses MEF2-mediated transcription by competing for the MEF2 Response Element (MRE). A) Enrichment of MEF2 binding motifs in ChIP-seq dataset. B) Gel shift assay of JP2NT binding to a desmin promoter-derived DNA sequence containing a WT or mutated MRE in vitro. C) Co-immunoprecipitation of HA-tagged JP2NT binding to MEF2C or Histone H3. D) & E) MEF2 activity assays in 293T cells co-transfected with luciferase under the control of an MRE, MEF2C and WT JP2NT (D) or a mutant lacking the ARR (E, JP2NT^ΔARR). n≥3 independent batches of cells; in each batch of experiments, 3 replicates were performed for each transfection; **p<0.01 vs. Ad-Empty.\nThe MEF2 family, master regulators of hypertrophic genes in cardiomyocytes, binds to the A/T enriched consensus sequence (C/TTA(A/T)4TA G/A), which shares the same core sequence with TATA box. Thus, it was hypothesized that JP2NT directly interacts with MEF2 binding sites."}}, "note": "Peptide text beside a SMILES is read from it. * marks the point of attachment. Cbz = O=C(OCc1ccccc1)*; CH2F = FC*", "data": [{"molecule": "O=C(O)CN(CCN(CC(=O)O)CC(=O)O)CC(=O)O", "note": "[EDTA]", "values": [{"measurement": "JP2 degradation by calpain I", "setting": "human calpain I", "value": "inhibited JP2 degradation"}]}, {"molecule": "CC(C)CC(NC(=O)OCc1ccccc1)C(=O)NC(CC(C)C)C(=O)NC(Cc1ccc(O)cc1)C(=O)CF", "note": "(stereo not drawn) [Z-LLY-FMK] (Cbz-Leu-Leu-Tyr-CH2F; configuration not given here)", "values": [{"measurement": "JP2 degradation by calpain I", "setting": "human calpain I", "value": "inhibited JP2 degradation"}, {"measurement": "JP2 cleavage products and full-length JP2", "setting": "human calpain I; lysates of 293T cells overexpressing FLAG/HA-tagged JP2, 3 mM and 500 μM Ca2+", "value": "substantial reduction in cleavage products and preservation of full-length JP2"}]}, {"molecule": "B1", "values": [{"measurement": "restoration of Ca2+ transients", "setting": "JP2-KD cardiomyocytes", "value": "failed to restore"}, {"measurement": "interaction with RyR2 and Cav1.2", "setting": "RyR2 and Cav1.2", "value": "not"}]}, {"molecule": "B2", "values": [{"measurement": "binding to TATA box", "setting": "TATA box DNA sequences", "value": "specifically bound to the consensus but not mutant TATA box"}, {"measurement": "interaction with MEF2C Response Element (MRE)", "setting": "[1]", "value": "interacts"}]}]}
